Data from patent US20140357845A1 (published 2014).

What was measured:
[1] = molecular target: H3-mini2-cl9 + 10 + 11-tri (influenza A virus H3N2); assay: FACS
[2] = molecular target: H3-mini2-cl9 + 10 + 11 + 13-GCN4 (influenza A virus H3N2); assay: FACS
[3] = molecular target: H3-mini2-cl9 + 10 + 11 + 13-tri (influenza A virus H3N2); assay: FACS
H3-mini2-cl9 + 13 = H3-mini2-cl9 + 13 (influenza A virus H3N2, UniProt Q38SQ8 18-566); assay: FACS
[4] = molecular target: H3-mini2-cl9 + 10 + 11-GCN4 (influenza A virus H3N2); assay: FACS
[5] = molecular target: H3-mini2-cl9 + 10 + 11 + 13 (influenza A virus H3N2, UniProt Q38SQ8 18-566); assay: FACS
[6] = molecular target: HA of influenza virus A/WF/MPA 892/06 (H4) (influenza A virus H4); assay: cell-based or functional assay
[7] = molecular target: HA of influenza virus A/EW/MPF461/07 (H5) (influenza A virus H5); assay: cell-based or functional assay
[8] = molecular target: HA of influenza virus A/Johannesburg/33/94 (H3) (influenza A virus H3); assay: cell-based or functional assay
[9] = molecular target: HA of influenza virus A/Ck/HK/SSP176/09 (H9) (influenza A virus H9); assay: cell-based or functional assay
[10] = molecular target: HA of influenza virus A/EW/MPH571/08 (H8) (influenza A virus H8); assay: cell-based or functional assay
[11] = molecular target: HA of influenza virus A/Hong Kong/1073/99 (H9) (influenza A virus H9); assay: cell-based or functional assay
[12] = molecular target: HA of influenza virus A/Chick/Germany/N/49 (H10) (influenza A virus H10); assay: cell-based or functional assay
[13] = molecular target: HA of influenza virus A/Env/MPU3156/05 (H2) (influenza A virus H2); assay: cell-based or functional assay
[14] = molecular target: HA of influenza virus A/EW/MPD411/07 (H6) (influenza A virus H6); assay: cell-based or functional assay
[15] = molecular target: HA of influenza virus A/Brisbane/10/2007 (H3) (influenza A virus H3); assay: cell-based or functional assay
[16] = molecular target: HA of influenza virus A/Panama/2007/1999 (H3) (influenza A virus H3); assay: cell-based or functional assay
[17] = molecular target: HA of influenza virus A/Hiroshima/52/2005 (H3) (influenza A virus H3); assay: cell-based or functional assay

B1: CR9114 (antibody, V domains shown)
VH: QVQLVQSGAEVKKPGSSVKVSCKSSGGTSNNYAISWVRQAPGQGLDWMGGISPIFGSTAYAQKFQGRVTISADIFSNTAYMELNSLTSEDTAVYFCARHGNYYYYSGMDVWGQGTTVTVSS
VL: SYVLTQPPAVSGTPGQRVTISCSGSDSNIGRRSVNWYQQFPGTAPKLLIYSNDQRPSVVPDRFSGSKSGTSASLAISGLQSEDEAEYYCAAWDDSLKGAVFGGGTQLTVL
binding result [1]: no binding (tested: 5 microgram/ml)
binding result [2]: no binding (tested: 5 microgram/ml)
binding result [3]: no binding (tested: 5 microgram/ml)
binding result (H3-mini2-cl9 + 13): no binding (tested: 5 microgram/ml)
binding result [4]: no binding (tested: 5 microgram/ml)
binding result [5]: no binding (tested: 5 microgram/ml)
geomean IC50, virus neutralization assay (VNA) [6]: 0.8 µg/mL
geomean IC50, virus neutralization assay (VNA) [7]: 10.5 µg/mL
geomean IC50, virus neutralization assay (VNA) [8]: 21.9 µg/mL
geomean IC50, virus neutralization assay (VNA) [9]: 6.3 µg/mL
geomean IC50, virus neutralization assay (VNA) [10]: 8.8 µg/mL
geomean IC50, virus neutralization assay (VNA) [11]: 4.4 µg/mL
geomean IC50, virus neutralization assay (VNA) [12]: 15.7 µg/mL
geomean IC50, virus neutralization assay (VNA) [13]: 8.8 µg/mL
geomean IC50, virus neutralization assay (VNA) [14]: 10.5 µg/mL
geomean IC50, virus neutralization assay (VNA) [15]: 5.6 µg/mL
geomean IC50, virus neutralization assay (VNA) [16]: 39.9 µg/mL
geomean IC50, virus neutralization assay (VNA) [17]: 12.5 µg/mL
